# According to the nanobody polyreactivity screen of Harvey et al. (2022):
# Assay: yeast display, Sf9 membrane polyspecificity reagent, FACS + sequencing; frameworks hold sequencing errors
# Summary of the method: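 A synthetic nanobody library was expressed on Saccharomyces cerevisiae BJ5465 by galactose induction for 36–48 hours. The library was stained for 1 hour at 4 °C with 10% biotinylated, detergent-solubilized Sf9 membrane reagent and enriched with streptavidin microbeads before FACS. Low and high (top ~1%) gates were set on anti-HA fluorescence for expression and streptavidin fluorescence for reagent binding, and each polyreactivity label reflects the gate of origin.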
row,Sequence,polyreactivity (PSR sort gate)
1,QVQIVDSGGGLVQAGGSLRISCAASGYISRVYAMGWYRQAPRKERELVAAITRSTTYYADSVKGRFTISRDNAKNTVYLQMNSLKPEDSAVYYCNAVWASPGQVRMYYWGQGTQVNVSS,high polyreactivity
2,QVQLVESGGGLVQAGGSLRLSCAASGITFGGNAMGWSRQAPGKERELVAAIDEGGGSTYYADSVKGRFTISRDNAKNTVYLQMNSLKPEDTAVYYCAADFVYYGYYYWGQGTQVTVSS,low polyreactivity
3,QVQLVESGGGLVQAGGSLRLSGAASGRIFQRYVMGWYRQAPGKERELVAAISYSGARTYYADSVKGRFTISRDNAKNTVYLQMNSLKPEDTAVYYCAARIRNWPAMDYWGQGTQETVSS,high polyreactivity
4,QVQLVESGGGLVQAGGSLRLSCAASGRTFIIYTMGWYRQAPGKEREFVAAITRSGGGTYYADSVKGRFTISRDNAKNTVYLQMNSLKPEDTAVYYCAADRFYDQAYDYWGQGTQVTVSS,low polyreactivity
5,QVQLVESGGGLVQAGGSLRLSCAASGGIFEAYVMGWYRHAPGKERELVAAISFRGGSTYYADSVKGRFTISRDNAKNTVYLQMNSLKPEDTAVYYCAADYRHQGYDYWGQGTQVTVSS,low polyreactivity
6,QVHLVESGGGLVQAGGSLRLSCAASGFIFLHYAMGWYRQAPGKERELVAAINKSGGSTYYADSVKGRFTSSRDNAMYTDYLQMNSLKPEDTAVYYCNAVYYWFIGDYWGQGTQVTVSS,high polyreactivity
7,QVQLVESGGGLVQAGGSLRLSCAASVFIFDRYAMGWYRQAPGKERELVAAISSGGSTYYADSVKGRFTISRDNAKNTVYLQMNSLKPEDTAVYYCAAESWLNFIYEYDYWGQGTQVTVSS,low polyreactivity
8,QDQLVESGGGLVQAGGSLRLSCAASGLIFNVNNMGWYRQAPGKDRELVAAISWSGTSTYYADSVKGRFTISRDKAKNTVYLQMNSLKPEDTAVYYCAAYNHRWEYEYWGQGTQVTVSS,high polyreactivity
9,QVQLVESGGGLVQAGRSLRLSCAASGLTFGQYAMGWYRQAPGIERELVAAMNWSGDGTYYADSVKGRFTISRDNAKNTVYLQMKSLKPEDTAVYYCNAGGRRYYYIGYDYWGQGTQLTVSS,low polyreactivity
10,QVQLQESGGGLVQAGGSLRLSCAPSGTITVLYKMGWFRQAPGKEGEFVASINYGTSTYYADSVKGRFTVSRDRAKNTVYLQMNSLKPEDTAVYYCAAAYRWQDVYRYWGQGTQVTVSS,low polyreactivity
11,QVQLVESGGGLVQAGGSLRLSCAASGSTFYTNAMGWDRPAPGKEREVVAAISWSGSSTYADSVKGRFTISRDNAKNTVYLQMNSLKPEDTAVYYCAADWFKLRTDYYWGQGTQVTVSS,low polyreactivity
12,QVQLVESGGGLVQAGGSLRLSCAASGFTFHGNAMGWYRQAPGKERELVAVISSSGASTYYADSVKGRFTISRDNAKNTVYLQMNSLKPEDTAVYYCAKVSSPLLYVSSDYDYWGQGTQVTVSS,high polyreactivity
13,QVQLVESGGGLVQAGGSLRLSCAASGFTFRRYAMGWYRQAPGKERELVAAITRTGAGTYYADSVKGRFTISRDNAKNTVYLQMNSLKPEDTAVYYCAAAFYYASAMDYWGQGTQVTVSS,high polyreactivity
14,QVQLQESGGGLVQAGGSLRLSCAASGYNSFSGYMGRYRQAPGKEREFVDSITPGRSTYYADSVKGRFTISRDNAEITVYLQMNSLKPEDTGVYYCAADDSRTEQHDYWGQGTQVTVSS,high polyreactivity
15,QVQLVESGGGLVQAGGSLRLSCAASGRTSLAYAMGWYRQAPGKERELVAAINTRGGSTYYADSVKGRFTISRDNAKNTVFLQINSLKPEDTAVYYCAKGPRLYFTRDKAHWKYDYWGQGTQVTVSS,low polyreactivity
16,QVQLVESGGGLVQAGASLRLSCAASGRIFGVYAMGWYRQAPGKDRELVAGINGGDSTYYADSVKGRFTISRDNAKNTVYLQINSLKPEDTAVYYCAAQADESGSNYDYWGQGTQVTVSS,low polyreactivity
17,QVQLVESGGGLVQAGGSLRLSCAASGSTFVYNDMGWYRQAPGKEREFVAVINWSGGRTYADSVKGRFTISRDNAKNTVYLQMNSLKPEDTAVYYCNARRRTGYRPAMDYWGQGTQVTVSS,high polyreactivity
18,QVQLVESGGGLVQAGGSLRLSCAASGSTFYHYAMVWYRQAPGKERELVAAISSSGGRTYYADSVKGRFTISRDNAKNTVYLKMNSLKPEDTAVYYCAARAKTSGSIEDYWGQGTQVTVSS,high polyreactivity
19,QVQLVESGGGLVQAGGSLRLSCAASGSIIRTYVMGWYRQAPGKERELVAAITYSGGRTYYADSVKGRFTISRDNAKNTVYLQMNSLKPEDTAVYYCAARSPRPSAIYDYWGQGTQVTVSS,high polyreactivity
20,QVQLVESGGGLVQAGGSLRLSCAASGSIFSSNAMGWYRQAPGKERELVAAISKSGSRTYYADSVKGRFTISRDNAKNTVYLQMNSLKPEDTAVYYCNAVGVSVYYAIAYDYWGQGTQVTVSS,high polyreactivity
21,QVQLVESGGGLVQARGSLRLSCAASGTIFSSYAMGWYRQAPGKERELVAAIRWTGGSTYYADSVKGRFTISRDNAMNTVFLEMNSLKPEDTAVYFCTAEYWIDWGYDYWGQGTQVTVSS,low polyreactivity
22,QVQLVESGGGLVQAGGSLRLSCAASGRTVGWYAMGWYRQAPGKERELVAAITWRGGSTYYADSVKGRFTISRDNAKNTVYLQMTSLKPEDTAVYYCAAAAEKRSYYWGQGTQVTVSS,high polyreactivity

row,Sequence,polyreactivity (PSR sort gate)
1,QVQLVESGGGLVQAGGSLRLSCAASGSIFRWYAMGWYRQAPGKERELVAAISTSGGNTYYADSVKGRFTISRDNAKNTVYLQMNSLKPEDTAVYYCNALWYRSLSYRYDYWGQGTQVTVSS,high polyreactivity
2,QVQLVESGGGLVQAGGSLRLSCAASGGTFSSNAMGWYRQAPGKERELVAAISGSGDRTYYADSVKGRFTISRDNAKNTVYLQMNSLKPEDTAVYYCAKTLHKGSRGRYNYWGQGTQVTVSS,high polyreactivity
3,QVQLVESGGGLVKEGGSLRLSCAASGRIFGPYAMGWYRQAPGKERELVAVITNSGSTNYADSVKGRFTISRDNAKNSVYLQMNCLKPEDTAVYYCNRFEGGAYGSNFDYWGQGTQVTVSS,high polyreactivity
4,QVQLVESGGGLVQAGGSLRLSCAASGSTFRWYAMGWSRQAPGKERELVAAIRRIGSRTYADSVKGRFTISRDNAKNTVYLQMNSLKPEDTAVYYCATRYKYTGYDYWGQGTQVTVSS,high polyreactivity
5,QVQLVESGGGLVQAGGSLRLSCAASGSTFGWYAIGWNRQAPGKERELVAAINSDGSTYYADSVKGRFTISRDNAKNNVYLQMNSLKPEDPAVYYCATDDALYGYLYHNYGYWGEGTQVTVSS,low polyreactivity
6,QVQLVESGGGLVQAGGSLRLSCAASGSTFWHYAMGWYRQAPGKERELVASISGRGTSTYYADSVKGRFTLSRDNAKNTVYLQMNSLKPEDTAVYYCAATKWYRAFDYWGQGTQVTVSS,low polyreactivity
7,QVQHVESGGGLVQAGGRLRLSCAASGSIFAWYARGWYIQAPGKEREVVADITHSGGSTYYADSLKGRFTISRDNAKNTVYLQMYSLKPEDTAVSYCVDYWYNDLQSGWEDDYWGQGTQVTVAS,low polyreactivity
8,QVQLVESGGGLVQAGGSLRLSCAASGSIFGIYAMGWYRQAPGKERELVAAISKSGGGTYYADSVKGRFTISRDNAKNTVYLQMNSLKPEDTAVYYCNADYWQWYSYWYDYWGQGTQVTVSS,high polyreactivity
9,QLQLVESGRGLVQAGGSLRLRCAASVSTFGANAMGWYRQAPGKESELVATISSGGRTYYADSVKGRFTISRDNAKNTVYLQMNSLKPEDTAVYYCNAGADYTYVYISVYVLYDEWGQGTQVTVSS,low polyreactivity
10,QVQLLESGGGLVQAGGSLRITCAASGFTFAVYAMGWYRQAPGKERELVAAISRSGTRTYYADSVKGRFTISRDNAKNTVYLLMNSLKPEDTAVYYCAADKYRHGYDYWGQGTQVTVSS,low polyreactivity
11,QVQLVESGGGLVQAGGSLRLSCAATGIIFKRYTMGWYRQAPGKERELVATINSGTRTYADSVKGRFTISRDNAKNTVYLQMNSLKPEDTAVYYCARRGYYYDYWGLGTQVTVSS,high polyreactivity
12,QVQLVESGGGLVQAGGSLRLSCAASGFTFDVYAKGLYRQAPGKERELVAAISIGANTYYADSVKGRFTISRDNAKSTVYLQMNSLKPEDTAVYYCAKRAYAPQYGYWGQGTQVTVSS,low polyreactivity
13,QVQLVESGGGLVQAGGSLRLSCAASGRIFGWYTMGWYRQAPGKERELVADINFGGSTYYADSVKGRFTISRDNAKNTVYLQMNSLTPEDTAVYYCNADYSVYIIADEYDYCGQGTQVTVSS,low polyreactivity
14,QVQLVESGGGLVQAGGSLRLSCAASGRIFYSYTMGWYRQAPGKEREMVAGINRSVGSTYYADSVKGRFTISRDNAKNTVYLQMNSLKPEDTAVYYCAAGSRRRSYYTFSSVHGHYYWGQGTQVTVSS,high polyreactivity
15,QVQLVESGGGLVQAGGSLRLSCAASGFTFYYYAMGWYRQAPGTEMELVAALSRSGVRTYYADSVNGRFTISRDNGKNTVYLQMTSLKPEDTAVYYCAAEFARSRMNYWGQGTKVTVSS,high polyreactivity
16,QVQLVESGGGLVQAGGSLRLSCAASGIIYNPNAMGWYRQAPGKERELVAVISISDSTNYADSVKGRFTISRDNAKNTVYLQMNSLKPEDTAVYDCATASAGTLSVTYYHWYDDWGQGTQVTVSS,low polyreactivity
17,QVQLVESGGGLVQAGGRLRLSCAASGRTFPWNVMGWYRQAPGKERELVAAISWSSGRTYYADSVKGRFTISRDNAKNTVYLQMNSLKPDDTAVYYCAKRYRPYRGNSGNDYWGQGTQVTVSS,high polyreactivity
18,QDQLVDSGGGLVQAGGSLRLSCAASGRIFSGNGMGWYSPAPGKERELVASISSGGRTYYADSVKGRFTISRDNAKITVYLQMNSLKPEDTAVYYCNRVASVRARDYDYWGQGTQVTVSS,high polyreactivity
19,QVQLVESGGGLVQAGGSLRLSCAASGLIFRLYAMGWYRQAPGKERELVAALSISGGSTYYADSVKGRFTLSRDNAKNTVYLQMNSLKPEDTAVYYCAARYYRGGPYYKYDYWGQGTQVTVSS,high polyreactivity
20,QVQLVESGGGVVQAGGSLRLTCAASGFTFARYATGWYRQAPGKERELVAAITYSGGRTYYADSVKGRFTISRDNAKNTVYLHMNSLKPEDTAVYYCAARQYGPRYTYYYWGQGTQVTVSS,high polyreactivity
21,QVQLVESGGVLVQAGGSLRLSCAASGRIFGRYAMGWYRPAPGKERELVAAISWSGDSTYYADSVKGRFTISRDNSTNTVYLHMNSLKPEDTAVYYCATGGRGGRRYEYWGQGTQVTVSS,low polyreactivity
